Test results: patent US20240117038A1

Legend:
mouse CX3CR1 (mouse) = mouse CX3CR1 (mouse) (UniProt Q9Z0D9); test: cell-based or functional assay
human CX3CR1 (human) = human CX3CR1 (human) (UniProt P49238); test: cell-based or functional assay
human CX3CR1 (human), sequence (P49238 whole entry): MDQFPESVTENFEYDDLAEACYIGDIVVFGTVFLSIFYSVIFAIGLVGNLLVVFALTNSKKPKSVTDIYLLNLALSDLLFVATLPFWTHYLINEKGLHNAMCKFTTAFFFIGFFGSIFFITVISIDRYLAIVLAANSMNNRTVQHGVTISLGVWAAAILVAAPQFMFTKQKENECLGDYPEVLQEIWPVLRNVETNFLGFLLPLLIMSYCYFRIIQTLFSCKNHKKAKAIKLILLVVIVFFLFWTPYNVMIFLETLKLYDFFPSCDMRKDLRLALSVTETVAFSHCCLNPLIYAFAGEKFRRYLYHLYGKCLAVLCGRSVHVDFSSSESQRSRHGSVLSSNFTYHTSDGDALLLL

mouse CX3CR1 (mouse), sequence (Q9Z0D9 whole entry): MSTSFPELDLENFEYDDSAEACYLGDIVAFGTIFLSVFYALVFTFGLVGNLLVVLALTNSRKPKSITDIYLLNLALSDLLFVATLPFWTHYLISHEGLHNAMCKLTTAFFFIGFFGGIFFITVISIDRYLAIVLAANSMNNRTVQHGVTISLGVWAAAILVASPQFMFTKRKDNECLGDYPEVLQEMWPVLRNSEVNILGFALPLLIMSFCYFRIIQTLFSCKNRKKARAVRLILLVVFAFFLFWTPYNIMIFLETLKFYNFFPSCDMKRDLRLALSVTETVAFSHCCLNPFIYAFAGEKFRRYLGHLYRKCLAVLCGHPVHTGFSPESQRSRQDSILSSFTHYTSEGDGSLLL

EC50, ERK phosphorylation in CHO K1 mCX3CR1 cells (mouse CX3CR1 (mouse)): 23 nM
EC50, ERK phosphorylation in CHO K1 huCX3CR1 cells (human CX3CR1 (human)): 73 nM
Substance: mouse CX3CL1 (from UniProt O35188 25-337) (ligand)
